Test results: PMC11697113, “The Hsc70 system maintains the synaptic SNARE protein SNAP-25 in an assembly-competent state and delays its aggregation [drawing 1]” (The Journal of Biological Chemistry, 2024)

Target: heat shock cognate 70 (Hsc70), human constitutively expressed Hsp70, wild type (human) (UniProt P11142)
Sequence (P11142 whole entry): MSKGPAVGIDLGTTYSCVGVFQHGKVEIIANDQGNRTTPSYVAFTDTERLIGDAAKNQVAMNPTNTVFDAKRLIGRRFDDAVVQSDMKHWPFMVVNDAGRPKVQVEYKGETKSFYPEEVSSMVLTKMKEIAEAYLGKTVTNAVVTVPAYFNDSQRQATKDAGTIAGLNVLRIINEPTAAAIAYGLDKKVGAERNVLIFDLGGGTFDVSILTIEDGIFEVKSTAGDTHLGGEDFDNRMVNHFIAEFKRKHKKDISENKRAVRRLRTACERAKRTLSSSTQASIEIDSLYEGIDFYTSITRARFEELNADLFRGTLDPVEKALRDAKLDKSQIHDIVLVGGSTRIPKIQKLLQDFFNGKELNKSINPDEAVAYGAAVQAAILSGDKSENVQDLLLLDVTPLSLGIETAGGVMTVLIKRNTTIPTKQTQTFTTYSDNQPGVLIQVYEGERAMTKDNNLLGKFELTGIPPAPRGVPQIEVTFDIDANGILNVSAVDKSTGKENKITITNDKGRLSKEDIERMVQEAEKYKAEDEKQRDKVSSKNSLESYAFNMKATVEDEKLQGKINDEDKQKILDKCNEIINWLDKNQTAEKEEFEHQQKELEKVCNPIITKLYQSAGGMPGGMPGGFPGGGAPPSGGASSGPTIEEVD

In the case of “SNAP-25 (SNAP-25B, Cys-less CS mutant), His tag cleaved (from UniProt P60880-1 1-206) (natural protein)”, the lag time of SNAP-25 aggregation (50 μM SNAP-25, optical density at 360 nm, 37 °C) in the presence of Hsc70 (5 μM); ∼38 h without Hsc70 is reported as 65 h.
